# Tests used:
# Experiment in all cases: cell-based or functional assay
# [1] = target: HIV-1 IAVI-C18 envelope protein (Env) on pseudovirus (HIV-1)
# [2] = target: HIV-1 MGRM-C-002 Env (HIV-1)
# [3] = target: HIV-1 MGRM-C-001 Env (HIV-1)
# [4] = target: HIV-1 MGRM-A-013 envelope glycoprotein (Env) (HIV-1)
# [5] = target: HIV-1 98CN009 envelope glycoprotein (Env) on pseudovirus (HIV-1)
# [6] = target: HIV-1 92UG031 envelope glycoprotein (Env) (HIV-1)
# [7] = target: HIV-1 Env of isolate MGRM-D-020 (clade D) (HIV-1)
# [8] = target: HIV-1 Env of pseudovirus CAAN.A2 (Acute), clade B (HIV-1)
# [9] = target: HIV-1 MGRM-A-003 envelope glycoprotein (Env) (HIV-1)
# [10] = target: HIV-1 MGRM-C-007 Env (HIV-1)
# [11] = target: HIV-1 92UG037 envelope glycoprotein (Env) (HIV-1)
# [12] = target: HIV-1 Env of isolate MGRM-D-011 (clade D) (HIV-1)
# [13] = target: HIV-1 Env of pseudovirus VLGCB3, clade B (HIV-1)
# [14] = target: HIV-1 Env of pseudovirus TRJ0.58 (Acute), clade B (HIV-1)
# [15] = target: HIV-1 Env of pseudovirus 6535.3 (Acute), clade B (HIV-1)
# [16] = target: HIV-1 MGRM-F1-021 Env (pseudovirus) (HIV-1)
# [17] = target: HIV-1 MGRM-C-010 Env (HIV-1)
# [18] = target: HIV-1 Env of isolate SF162 (HIV-1) (UniProt P19549)
# [19] = target: HIV-1 MGRM-A-014 envelope glycoprotein (Env) (HIV-1)
# [20] = target: HIV-1 MGRM-F1-012 Env (pseudovirus) (HIV-1)
# [21] = target: HIV-1 MGRM-C-027 envelope glycoprotein (Env) on pseudovirus (HIV-1)
# [22] = target: HIV-1 Env of isolate MG RM-A-006 (HIV-1)
# [23] = target: HIV-1 Env of isolate MGRM-C-027 (HIV-1)
# [24] = target: HIV-1 Env of isolate 98CN009 (HIV-1)
# [25] = target: HIV-1 Env of isolate MGRM-F1-006 (subtype F), on pseudovirus (HIV-1)
# [26] = target: HIV-1 JR-CSF Env K168A (HIV-1 (isolate JR-CSF)) (UniProt P20871)
# [27] = target: HIV-1 Env of isolate MGRM-AE-001 (CRF01_AE), on pseudovirus (HIV-1)
# [28] = target: HIV-1 Env of isolate TRJ04551.58 (HIV-1)
# [29] = target: aMLV envelope on pseudovirus (negative control virus)
# [30] = target: HIV-1 Env of isolate 92UG114 (HIV-1)
# [31] = target: HIV-1 Env of isolate QH0692.42 (HIV-1)
# [32] = target: HIV-1 Env of isolate MGRM-D-024 (subtype D), on pseudovirus (HIV-1)
# [33] = target: HIV-1 Env of isolate 93UG077 (HIV-1)
# [34] = target: HIV-1 93IN905 envelope glycoprotein (Env) on pseudovirus (HIV-1)
# [35] = target: HIV-1 Env of isolate MGRM-D-019 (HIV-1)
# [36] = target: HIV-1 Env of isolate MGRM-D-011 (HIV-1)
# [37] = target: HIV-1 Env of isolate MGRM-AE-004 (CRF01_AE), on pseudovirus (HIV-1)
# [38] = target: HIV-1 Env of isolate MGRM-C-014 (HIV-1)
# [39] = target: HIV-1 Env of isolate MGRM-F1-018 (subtype F), on pseudovirus (HIV-1)
# [40] = target: HIV-1 JR-CSF Env N188A (HIV-1 (isolate JR-CSF)) (UniProt P20871)
# [41] = target: HIV-1 Env of isolate MGRM-D-016 (HIV-1)
substance,measurement,setting,value
1495_C14 (PGC14) (antibody),neutralization IC50,[1],> 50 µg/mL
same,IC50,[2],> 50 µg/mL
same,IC50,[3],> 50 µg/mL
same,"IC50 (µg/ml), pseudovirus neutralization",[4],> 50 µg/mL
same,"IC50 (µg/ml), pseudovirus neutralization",[5],43 µg/mL
same,"IC50 (µg/ml), pseudovirus neutralization",[6],> 50 µg/mL
same,"IC50 (µg/ml), pseudovirus neutralization",[7],> 50 µg/mL
same,"IC50 (µg/ml), pseudovirus neutralization",[8],> 50 µg/mL
same,"IC50 (µg/ml), pseudovirus neutralization",[9],> 50 µg/mL
same,IC50,[10],> 50 µg/mL
same,"IC50 (µg/ml), pseudovirus neutralization",[11],> 50 µg/mL
same,"IC50 (µg/ml), pseudovirus neutralization",[12],> 50 µg/mL
same,"IC50 (µg/ml), pseudovirus neutralization",[13],21 µg/mL
same,"IC50 (µg/ml), pseudovirus neutralization",[14],> 50 µg/mL
same,"IC50 (µg/ml), pseudovirus neutralization",[15],35 µg/mL
same,"IC50 (µg/ml), pseudovirus neutralization",[16],46 µg/mL
same,IC50,[17],> 50 µg/mL
same,"IC50 (µg/ml), pseudovirus neutralization",[18],< 0.0025 µg/mL
same,"IC50 (µg/ml), pseudovirus neutralization",[19],> 50 µg/mL
same,"IC50 (µg/ml), pseudovirus neutralization",[20],> 50 µg/mL
5147_N06 (PGT-130) (antibody),"IC50 (ug/ml), neutralizing activity",[21],0.0052 µg/mL
same,neutralization IC50,[22],> 50 µg/mL
same,IC50,[23],0.008 µg/mL
same,IC50,[24],0.136 µg/mL
same,"IC50, pseudovirus neutralization",[25],> 50 µg/mL
same,Fold IC50 increase relative to wild-type,[26],1.2 fold
same,"IC50, single-round pseudovirus neutralization",[27],1 µg/mL
same,IC50,[28],0.023 µg/mL
same,"IC50 (ug/ml), neutralizing activity",[29],> 10 µg/mL
same,IC50,[30],> 50 µg/mL
same,IC50,[31],> 50 µg/mL
same,"IC50, pseudovirus neutralization",[32],> 50 µg/mL
same,neutralization IC50,[33],21.4 µg/mL
same,"IC50 (ug/ml), neutralizing activity",[34],0.0182 µg/mL
same,IC50,[35],> 50 µg/mL
same,IC50,[36],0.019 µg/mL
same,"IC50, single-round pseudovirus neutralization",[37],2.43 µg/mL
same,IC50,[38],> 50 µg/mL
same,"IC50, pseudovirus neutralization",[39],> 50 µg/mL
same,Fold IC50 increase relative to wild-type,[40],1 fold
same,IC50,[41],> 50 µg/mL
5343_B08 (PGT-135) (antibody),neutralization IC50,[22],> 50 µg/mL
same,IC50,[23],> 50 µg/mL
same,IC50,[24],0.071 µg/mL
same,"IC50, pseudovirus neutralization",[25],> 50 µg/mL
same,Fold IC50 increase relative to wild-type,[26],0.4 fold
same,"IC50, single-round pseudovirus neutralization",[27],> 50 µg/mL
same,IC50,[28],> 50 µg/mL
same,IC50,[30],1.29 µg/mL
same,IC50,[31],> 50 µg/mL
same,"IC50, pseudovirus neutralization",[32],> 50 µg/mL
same,neutralization IC50,[33],> 50 µg/mL
same,IC50,[35],> 50 µg/mL
same,IC50,[36],23.5 µg/mL
same,"IC50, single-round pseudovirus neutralization",[37],> 50 µg/mL
same,IC50,[38],> 50 µg/mL
same,"IC50, pseudovirus neutralization",[39],> 50 µg/mL
same,Fold IC50 increase relative to wild-type,[40],0.4 fold
same,IC50,[41],> 50 µg/mL
b12 (antibody),neutralization IC50,[1],> 50 µg/mL
same,IC50,[2],> 50 µg/mL
same,IC50,[3],> 50 µg/mL
same,"IC50 (µg/ml), pseudovirus neutralization",[4],7.04 µg/mL
same,"IC50 (µg/ml), pseudovirus neutralization",[5],1.52 µg/mL
same,"IC50 (µg/ml), pseudovirus neutralization",[6],> 50 µg/mL
same,"IC50 (µg/ml), pseudovirus neutralization",[7],> 50 µg/mL
same,"IC50 (µg/ml), pseudovirus neutralization",[8],> 50 µg/mL
same,"IC50 (µg/ml), pseudovirus neutralization",[9],> 50 µg/mL
same,IC50,[10],> 50 µg/mL
same,"IC50 (µg/ml), pseudovirus neutralization",[11],> 50 µg/mL
same,"IC50 (µg/ml), pseudovirus neutralization",[12],7.75 µg/mL
same,IC90 (pseudovirus neutralization),[34],> 50 µg/mL
same,"IC50 (µg/ml), pseudovirus neutralization",[13],0.15 µg/mL
same,"IC50 (µg/ml), pseudovirus neutralization",[14],> 50 µg/mL
same,"IC50 (µg/ml), pseudovirus neutralization",[15],1.93 µg/mL
same,"IC50 (µg/ml), pseudovirus neutralization",[16],> 50 µg/mL
same,IC50,[17],> 50 µg/mL
same,"IC50 (µg/ml), pseudovirus neutralization",[18],0.02 µg/mL
same,"IC50 (µg/ml), pseudovirus neutralization",[19],> 50 µg/mL
same,"IC50 (µg/ml), pseudovirus neutralization",[20],> 50 µg/mL
